In the domain aggregation screens of Martell et al. (2025):

Assay: soluble fraction after stress (log2 fold change); higher = more stays soluble; pooled small domains, quantitative proteomics
Conditions: stress: pH 4
Procedure, shortened: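 Following acid stress at pH 4, the amount of each small protein domain still soluble was measured in pooled custom libraries by high-throughput quantitative proteomics. Its fold change, on a log2 scale, is higher when more of the domain stayed soluble. This fold change is taken as a measure of aggregation propensity.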

Sequence	soluble fraction (log2)
HMGASTQLVEIKNAYENGEWQNVIDLAGKLHEKYNGSEEDKEAQEMAKNSQSKLDEAAAAKAAEEA	0.184
HMGASYSQFLDQVDSGNVQKVAFGGDMRGGTSQLTYTTRGGQSSTITAPFDRDLINVLRTKNVEIVQEEP	0.0587
HMGATFITSSKDNAINIRQAAGTDSKVIETIKNGHILESSEKSGEWYKVTYYDSDIKKTFTGYIHNSQLK	-0.162
HMGAVQFAEQKIHIGSRWIGKKISEFSAESDAFVILIKRGSEVVIPRGPTDIVENDVLVIHVPD	-1.8
HMGAVVSPMPGVILDIKVKEGDSVSEGQTVIILEAMKMENEIVSEFTGTVSAIRVKKGDTVDTDAVLVEI	-1.04
HMGAYPENSLLKERGQSAVYLIQENRKRLFFNAEAFLINGYNWKDIQVVDDLSKILTGKVIYAK	-1.48
HMGDAATVFRDHYNINSAAQAQAALDRKEALWEQPNPWRDSDNREVFDWAAQTVKDRFDSGKYKPK	-0.107
HMGDDVRKNILDVLSKFERVDITDLDSLELVRFYLEIEDIFDIEIKENDFYRLKSVDSIVDYIRNKSFF	-1.64
HMGDIQFMEYRINHSSGWIGKNISDFAAVSKNLVILIKRGQDVVIPRGPTAIMEDDVLVLHA	-1.15
HMGDITALMPGKVIQIIVKEGQEIKVGDPLIVIESMKMENTISSEVNGTIKSINIQIDDNVQFDQVLFTV	-1.03
HMGDITIPDLQGMSFDQAREKLKALGLSIGKISYTSDTSKDDGVVISQGLQAGGKASKGATVDITINET	-0.177
HMGDLEEAVKDFSEAIRLNDSWAEAYANRAVVYAEQGDAAQSDQDAEKARLLGVDQNRLNEMLNAVNS	-0.21
HMGDLKALMPGKVTQVLVSGGQKVKVGEPVLLMESMKMEQTIVATKDGDISEILVSEGDTVEVGKIMIKI	0.0925
HMGDLTVPDLSGLTVDQAKQRLKDMGLVLGKITTQEDSSKPDGVIISQSPSADGKINKGQLVDVVVNKLS	0.206
HMGDTHKVPGVKGVNVEQAMDMLSRLDLKAVVIDSVYVKDKKLGTVIEQNPVEGSVVKPGRPIYLVVNSRS	-0.0241
HMGDTISVPAVRTLAYNKAMDILNAEGLKGIVADSVYDNHTAPGTVIEQNPKAGTIVKEGREVFLTIHA	-0.0483
HMGDWITGTVTRIADNGWGTFQPENAHNTVSIPPKMVADNQLKEADSIKIIAEPSPDGTKTFIKAISRE	0.214
HMGEDSEPVQVPDVTGQPLWEARRTLSSMGLKVLDDGGSGSVTAQMPSAGATLRNGGQMMLYTYDEALPE	0.033
HMGEEIRTWTDAQGRKIEARMSMLDGDQVLLELKDGRKIPYPLAKLSADDAHYARHFASASASD	-0.00959
HMGEFVQLKNRTGSVIEAKILNYQNGKVKLQRKDGVIFVVPISIFDRMSSSIIENKAKEMDSF	0.255
HMGEIHAQIPGLVSHLFVKEGNTVQVEQKLFILEAMKMENEIDSPIQGTVKRIHIATGSKVEKGDLIMEIS	-0.117
HMGEKFTFGQIAKAKAYAKTYANDMTSAVKNIEAIATGLSKHPEVADTLKKANENQELNRITKLAG	0.369
HMGEKPTEITLSNAISVQELAEKLYVSETDIIRTLFLDGIIVNINQVLDLETAVKVGDQLGVTITIVE	-1.8

Sequence	soluble fraction (log2)
HMGEKTVPNVIGQKLATAKQLLEKEGLTVGSTSYNKNQADKDTVLSTDPAPGSHLSEGAKVNLTLSSGA	0.0205
HMGEKVIAVSGGFDPIHVGHLRMMQDAAQHGRLVVIVNSDEWLLKKKGYVFMPWEERAELIGAYDFVDE	-0.6
HMGELDPKIIAQINTFLQGITKLIEHPGNKDAKKTALGALHKLTFDQNITANFGKQLGQLDQVIQSSEET	-0.127
HMGELGPGSRGQAVRALQERLMALGFPLARFGADGIFGRETTGALRAFQHVAGLSPTGLGDHETLKWLGII	-0.351
HMGELTNALATLSERERDVARLVAQGLDNRQIAAQLFLSEGTVRNRISDILDKLALTNRTQLAIAWLHAE	-0.615
HMGEPTLTIRVVSYNPQSGEMVVVARDPLSGRYALATLNVRTGAGQMIGPQGELLPIENFALGS	-0.692
HMGEQVAVPDVTKKSVREVNNILTSAGLRLQIEGSGISVRQDPPADTMVAPDTVVTVSFEPP	-0.0261
HMGEQVFSRKDLAINGNDLKAVFGWPPGPKYREALDQLFHWVLEDPARNRRETLLAYLHSLYD	-0.774
HMGESEKTLELVSQKDALVDEAFFFVRFQALLESNKTKGAQDLLDQSNHLSAAKLLQANAYLDIV	0.038
HMGESFEELAREISDDTGSKTEGGETGLFPRGVMAPQFEEAAFLLKVGDISEPIRTKFGYHIIKLKEIKP	-0.0823
HMGESVVVPDLRGKTLEEARAILKKVDLDYEINDSTYSKTAVPGTIRDIVPAPGSHVKAGRILFVSING	0.0395
HMGETISVPAVRSLAYDRAVDMLTAEGLKGIVADSVYDNRTQPGTVIEQNPKAGTIVKEGREVYLTINA	0.0278
HMGFAPEAAREEVAQLIGQRGRAVTVLRPSGQVEIAGRRFEATVEVGAVDAGDTIVVRGQTAFALLVEKAD	0.0812
HMGFKLQRYTTFVVERLKKYQDTPAAQMHDLLKEHYPDFPAVSPKTVYNYVMKIRQEHGLPAV	≥ 0.43
HMGFSERLAQAMSHAGYTQGGLAKAVGMAQSSVNKLLNNANSSRKTVEIASVLGVRPEWLSTGEGDML	0.188
HMGFSKGKRDLIRMIKLAIRELADDNGRAQIEDVITRLVQEGHSRDEIRLQIDMFLRQGEAMEPKQGIIKL	-0.891
HMGFSLEQFGTDPDLKKIVENAFERIITASEGRIFKSDFSSNNSALPLEIFSFLIAVILLKLSGMN	-0.489
HMGFVATRSRKFLPFSEARAITRGLGFSNQKDYKEWIKGNGNELLLPFNPWRTYGDSGWKGWKDFLGTDKA	0.0101
HMGFYDLFINLADKVGSLADVTQILAEARINLVNVHILEIREEIDGIAQLTFSSEKDRQKALELLKTKYK	-1.52
HMGGDFVEHLKDLASEAPVIRLVNTIIGRVIDLRASDIHLEPFDDGLHVRYRVDGVIHPGELVPPRLS	-0.249
HMGGEGQIEIREREGIPAEAWVDGVMRGQTPLRVEHVSIGTRRVELRAEGRPPVAADVLVRPTVTALVELS	-0.192
HMGGEHPIPEDWAVNEANYEHGAKFYGYTRAHVDAEAQAFRDQYAANGKKYVDWDAHFRTFMRWQNERRYG	-0.416
HMGGEPVSARVPDTLHGARLDATAAALFPDFSRSRLAEWIKAGRLRRNDQPAKPRDKVAVDDHLLLIPEY	-0.431

Sequence	soluble fraction (log2)
HMGGFSVTAEAFDGTPEVGKTVGFTAGSTKIKVEDTKGDATFGTILEKETVGFGEGKYTYFYIGL	-0.276
HMGGKAITGGEGEIIIRADKAETVAIYGIDGRLVHRVSTEAGDTKRVSVPAGIYIVKGAKVVV	0.42
HMGGKTAVVTGSLVNVRKGPGTGNALVGQVARGDELPVLGQDGDWYQIKLANGSNGWVAGWLVSLKDAVP	-0.112
HMGGLIDQSIQEIIDKYSVPGKKIQKAQRLKIVAEMHTKGIFKMRGGVQQAAQALGVTRYTVYNDLEVMN	-0.259
HMGGLLSVIQKKAINNVKDRYSENAIKSMTKVQLHDLIKAETSRLLDPANAKETPEYQAFLEE	0.116
HMGGLSAEQKNGIQSVLKNFDPKNLTSADAKSITSEFKKLGVQPGKDLETTMAASGFDAKEVGRLAF	0.177
HMGGPRDVPYSTFLIEVEKGQVAEVTIQDHKITGTYKNSNEPFITNAPDDPDLVSRLIKYGVGVQAKPPE	0.0182
HMGGREEAGTDIARLLGYINDIHGEELIAKLEYYQKMLGSENFAVLMSRLPDGQKKELREQNLYSEYV	-0.298
HMGGRRHANMSREEEAAFLAPFFEKAAQGGILVVREIRQALDAHLGRTVPLSTVYNLLHRHNWRKL	0.379
HMGGRTITVGISENMTVKDIAQMLEEKGLIEDARLFVVQELLSAYHKEIKPGIYDLSTDMTAAQMLEIMS	-1.32
HMGGSIDITTAPPGAKIYLDADYYGKTPKRLENISAGTYRLHLLHPEKGEVYRSVTLNEKNGTLKIDENLN	0.0705
HMGGTATDYYNQGRTAYDVGDYNGALMNFQEAVRLDPRYGEAYYGLGKAYEALNMQNQALDAYLSAI	-1.46
HMGGVSTDKPLNWDADGTSKLTQEQIDYLRSTYDLSDMSKQDYYDLMADLTNMNAISIKDVISQYVK	-0.462
HMGGYVVVGDKDGFWSVVSTPVSKAKAEELLKDTTFPKGEKGKIVSVAEAMSHKKVIGKEYLESGGT	0.0926
HMGHASPGNREALQFALERHQARAAEFAEKAGLSIANASTKFKQLWEQGFLMRNESVADSGGVEFLYQR	-0.0683
HMGHEISLNNSRFLKLLNKTKISISNDDTRHYLNGIFLHLTEAHGRQFLTGVATDSHRLSSSSLEID	-0.226
HMGHRQRRARARNRSMLEDIPGLGPKRRQQLLRQFGGLPQLMRAGVAELSQVPGISDSLARKIHAELHPES	-1.87
HMGHYGQMTRDLIEKAKTYEEGEEKAALVLTIANLMKRHYLTWNRATVENTLIAEQLKEMSEGALTLPEDV	-0.962
HMGIAEGSSVFVRVLAAEDGGRYTVSFAGRRFSVLSRQALGIGSAFRADVKVEKGQVLLVPR	-0.348
HMGIAERKEKQKLEIRNAILEASRKLIVEEGFEKVTMRKIADLIEYSPTTVYLYFKDKNEILFHLHQ	-0.798
HMGIDVSAFSDTALEVLRLQAAGYTTREIAQQLHITQRTVKYHASENYRKLDARNLVDAVQIAQSLHI	-0.602
HMGIEIKLLMSFMTDSGRKVSLFVTDPREDVTETEIKQVMDLIIEKNIFAPNGEDIVSAKEAKIVQT	-1.2
